# IntAct's records for PubMed 20972459
# B1: WW domain-binding protein 2 (Homo sapiens), Q969T9 (parent)
# chain: MALNKNHSEGGGVIVNNTESILMSYDHVELTFNDMKNVPEAFKGTKKGTVYLTPYRVIFLSKGKDAMQSFMMPFYLMKDCEIKQPVFGANYIKGTVKAEAGGGWEGSASYKLTFTAGGAIEFGQRMLQVASQASRGEVPSGAYGYSYMPSGAYVYPPPVANGMYPCPPGYPYPPPPPEFYPGPPMMDGAMGYVQPPPPPYPGPMEPPVSGPDVPSTPAAEAKAAEAAASAYYNPGNPHNVYMPTSQPPPPPYYPPEDKKTQ
# Variants of: B1
# Conditions: with wwtr1_human WWTR1, Q9GZV5
# Sequence of wwtr1_human WWTR1, Q9GZV5 (Q9GZV5 whole entry): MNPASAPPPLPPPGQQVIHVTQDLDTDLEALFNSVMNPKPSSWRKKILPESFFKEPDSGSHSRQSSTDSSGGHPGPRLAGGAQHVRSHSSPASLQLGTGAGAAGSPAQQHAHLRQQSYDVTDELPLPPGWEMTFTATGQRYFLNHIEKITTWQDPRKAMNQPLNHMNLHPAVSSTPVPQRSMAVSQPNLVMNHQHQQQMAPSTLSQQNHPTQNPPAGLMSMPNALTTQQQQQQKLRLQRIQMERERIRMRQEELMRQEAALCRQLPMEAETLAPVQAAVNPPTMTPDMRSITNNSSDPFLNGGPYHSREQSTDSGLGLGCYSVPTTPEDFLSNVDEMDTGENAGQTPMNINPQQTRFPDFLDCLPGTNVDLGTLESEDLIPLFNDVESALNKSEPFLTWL
row,Variant,effect of a mutation on the interaction
1,Y200A,disrupting interaction
